For one assay, the target named is T1, wild type RhoA (Homo sapiens, UniProt P61586).
T1 construct: expressed in transfected cells; host or cells: yeast strain L40
The assay can be described thus: Yeast two-hybrid, N-terminal region of PKN with wild type RhoA. It is filed as binding. The settings on record: yeast L40, histidine requirement. The text has this: (§1) According to a method described in A. B. Vojetk et al. Cell 74, 205-214 (1993), wild type H-Ras, wild type RhoA with C-terminal CAAX structure removed (S. Ando et al. Jikken Igaku 11, 1973-1980 (1993)), and variant RhoA^Val14cDNA fragment, were introduced into pBTM116 vector (A. B. Vojetk et al, ibid.) to construct vectors (designated as pBTM116-RasWT, pBTM116-RhoWT, and pBTM116-Rho^Val14), for expression thereof and LexA as fusion protein in yeast cells, which were then transformed into yeast (strain L40).
(§2) cDNA in N-terminal region (the amino acid sequence 7-155 in SEQ ID NO: 1) of PKN was introduced into BamHI site of pACT vector ([…] Library Kit, manufactured by Clontech Laboratories, Inc.) to construct a vector (designated as pACTIIHK-PKN-N) for expression thereof and GAL4 as fusion protein in yeast cells. The cDNA fragment, used here, corresponding to the N-terminal region of PKN was prepared as described in Example 4 (1).
(§3) Yeast transformed with pBTM116-RasWT, pBTM116-RhoWT, and pBTM116-Rho^Val14 was further transformed with pACTIIHK-PKN-N. Transformants were screened based on histidine requirement (A. B. Vojetk et al, Cell 74, 205-214 (1993).

A further assay concerns the target T2, variant RhoA^Val14 (Homo sapiens, UniProt P61586, G14V).
T2 construct: expressed in transfected cells; host or cells: yeast strain L40
The assay can be described thus: Yeast two-hybrid, N-terminal region of PKN with RhoA^Val14. It is filed as binding. Conditions: yeast L40, histidine requirement.
Description: as §1, §2, §3

The next assay concerns the target T3, RhoA^Val14 CLVL^− (Homo sapiens, UniProt P61586, G14V).
T3 construct: expressed in transfected cells; host or cells: yeast strain L40
The assay can be described thus: Yeast two-hybrid, truncated PKN with RhoA^Val14CLVL^−. In kind it is binding. The settings on record: yeast L40. The text has this:
The cDNA fragments encoding various length of human PKN were inserted into the vector pBTM116 (Example 7) in frame with the upstream LexA DNA-binding domain sequences or the vector pVP16 (Example 7) in frame with the upstream VP16 transcription activation domain sequences. The cDNA fragments encoding human RhoA, RhoA^Val14, and RhoA^Ala37 were obtained by digesting pGEX-RhoA, pGEX-RhoA^Val14, and pGEX-RhoA^Ala37 (Example 1) with restriction enzymes, respectively, then cloned into pBTM116 and pVP16.
The expression plasmids were transfected into yeast L40 cells and plated on semi-solid media lacking tryptophan and leucine. Interaction was examined using a filter lift assay for the β-galactosidase activity in the same manner as in Example 6. […]

A further assay relates to α-actinin (HuActSkl). The assay can be described thus: Yeast two-hybrid, regions of PKN with HuActSkl. In kind it is binding, human. The procedure: Schemes of the fusion constructs for human PKN, human skeletal muscle type α-actinin (HuActSkl , designated in (Beggs, A., et al., J. Biol. Chem. 267, 9281-9288 (1992)) and non-skeletal muscle type α-actinin (HuActNm, designated in (Beggs, A., et al., J. Biol. Chem. 267, 9281-9288 (1992)) used in this study are shown in FIGS. 41 and 42. Screening of proteins, which bind to the N-terminal region of human PKN (the amino acid sequence 1-540, this region being designated as “PKNNl”), was performed as described in Example 6. Primary positive clones were recovered and retransfected into the original yeast host strain YGH1 (a, ura3-52, his3-200, ade2-101, lys2-801, trpl-901, leu2-3, Can^r, gal4-542, gal80-538, LYS2::gal1uas-gal1tala-HIS3, URA3::gall-lacZ) in combination with the Gal4bd-PKN or the Gal4bd-p53 tumor suppresser. Plasmids that activated marker expression only in the presence of PKN were analyzed further.
The two-hybrid methods was employed to identify the region of PKN that interacted with HuActSkl , and this region was compared with the binding site for RhoA, which binds to PKN, in vitro and in vivo. […] This region corresponds to the second leucine zipperlike sequence and the N-terminal region adjacent thereto, which is conserved through evolution in vertebrates (Mukai, H., et al., Biochim. Biophys. Acta 1261, 296-300 (1995)). […]

Assay [1] addresses T4, binding of PKN to GTPγS.GST-RhoA (Homo sapiens, UniProt P61586).
T4 construct: made in house; PKN 1-474: in vitro translation
Briefly: Inhibition of binding between in vitro translated PKN and GTPγS.GST-RhoA by synthetic peptides. Conditions: concentration-dependent. On the procedure:
A protein corresponding to the amino acid sequence 1-474 in SEQ ID NO: 1) was prepared by in vitro translation. GTPγS or GDP.GST-RhoA (15 nM) was incubated with PKN (1.5 μl) prepared by in vitro translation in a total volume of 200 μl of binding buffer (20 mM Tris/HCl at pH 7.5, 1 mM EDTA, 0.5 mM DTT, 5 mM MgCl2 and 1 μg/ml leupeptin) for 60 min at 4° C. Then 40 μl of glutathione-Sepharose 4B (Pharmacia Biotech) preincubated in binding buffer containing 10 mg/ml E. coli extracts to block non-specific binding was added, and the mixture was rotated for 30 min at 4° C. Unbound proteins were removed by four washes with binding buffer containing 0.2% Nonidet P-40 and 50 mM NaCl, and by two washes with binding buffer. Specifically bound proteins were eluted with binding buffer containing 10 mM reduced glutathione and subjected to SDS-PAGE, and the gel was subjected to autoradiography.
Synthetic peptide fragments for potential RhoA binding region of PKN were synthesized with an automated peptide synthesizer (Applied Biosystems, model 431). An experiment using synthetic peptides wes carried out using the peptides in various concentrations in 200 μl of binding buffer.

A further assay deals with PKN in Swiss 3T3 cells. In kind it is cell-based. Conditions: 200 ng/ml for 10 min.
Assay [2] addresses T5, binding of full-length α-actinin (HuActSkl) to GST-PKNN1 (Homo sapiens, UniProt P35609).
T5 construct: 2 μl of in vitro translated full-length HuActSkl was mixed with 5 μg of GST-PKNN1 fusion protein; made in house; host or cells: HuActSkl: rabbit reticulocyte lysate; GST-PKNN1: E. coli
Briefly: Effect of PI4,5P2 on in vitro binding between α-actinin and PKN. On the procedure:
For analysis of the effect of phosphatidylinositol 4,5 bisphosphate (PI4, 5P2) (Boehringer Mannheim) on the binding between α-actinin and PKN, 2 μl of in vitro translated full-length HuActSkl was mixed with 5 μg of GST-PKNN1 fusion protein or with 25 μg of GST alone in 400 μl of buffer P (20 mM Tris/HCl at pH 7.5, 0.5 mM DTT, 120 mM NaCl, 1 mM EDTA) and incubated for 1 hr at room temperature with or without PI4, 5P2. After addition of 25 μl of glutathione-Sepharose 4B pretreated with E. coli extract, the binding reaction was continued for additional 30 min at 4° C. The glutathione-Sepharose 4B was then washed four times in buffer P containing 0.01% Triton X-100. Bound proteins were eluted with GST elution buffer and were subjected to SDS-PAGE. The binding was visualized and quantitated by an imaging analyzer (FUJI BAS1000).

Experimental findings from US6660837B1, “Modified protein derived from protein kinase N” (Kirin Beer Kabushiki Kaisha, priority 1995, dated 2003) are described below.

Entries after “also recorded” stand apart in the source; their conditions may differ.

Turning to “N-terminal region (amino acids 7-155) of PKN: amino acid sequence 7-155 in SEQ ID NO: 1 expressed as GAL4 fusion protein in yeast”, in the assay with wild type RhoA, the “binding to wild type RhoA” value is reported as “binds”. In addition, in the assay with variant RhoA^Val14, the “binding to variant RhoA^Val14” value was “binds”. As to “amino acid sequence 1-538: truncated human PKN, amino acid sequence 1-538 in SEQ ID NO: 1, two-hybrid fusion”, the “interaction with RhoA^Val14 CLVL^− (β-galactosidase filter assay)” value in the assay with RhoA^Val14 CLVL^− is “interacted”. On to “amino acid sequence 33-111: truncated human PKN, amino acid sequence 33-111 in SEQ ID NO: 1, Rho protein-binding region”, for which, in the assay with RhoA^Val14 CLVL^−, the “interaction with RhoA^Val14 CLVL^− (β-galactosidase filter assay)” value is listed as “interacted”. The “interaction with α-actinin in two-hybrid system” value in the assay with α-actinin (HuActSkl) is on record as “hardly interacted”. In the case of “amino acid sequence 74-93: synthetic peptide fragment corresponding to the amino acid sequence 74-93 in SEQ ID NO: 1 (ELLLRGSSRRLDLLHQQLQE; UniProt Q16512 74-93, looked up, fragment)”, the “inhibition of binding of PKN to GTPγS.GST-RhoA” value in assay [1] was “inhibited the binding”. For the substance “amino acid sequence 82-103: synthetic peptide fragment corresponding to the amino acid sequence 82-103 in SEQ ID NO: 1 (RRLDLLHQQLQELHAHVVLPDP; UniProt Q16512 82-103, looked up, fragment)”, the “inhibition of binding of PKN to GTPγS.GST-RhoA” value in assay [1] is on record as “excellent inhibitory activity; also recorded: inhibited the binding”. The same measure, in the same setting: the result for “amino acid sequence 94-113: synthetic peptide fragment corresponding to the amino acid sequence 94-113 in SEQ ID NO: 1 (LHAHVVLPDPAATHDGPQSP; UniProt Q16512 94-113, looked up, fragment)” reads “inhibited the binding”. Consider lysophosphatidic acid [LAP], for which the “stimulation of autophosphorylation of PKN” value in the assay on PKN in Swiss 3T3 cells is reported as “twice”. In the case of “phosphatidylinositol 4,5 bisphosphate [PI4, 5P2]”, the “effect on binding of full-length α-actinin to PKN” value in assay [2] (10 μM) is “stimulated the binding”. Moreover, in assay [2] (decreased at higher concentrations up to 100 μM), the “concentration up to which binding activity was elevated” value lay within 2.5 to 10 µM.
